How the values were obtained:
[1] = substrate: O=C1O[C@H](COP(=O)(O)O)[C@H](O)[C@H]1O; test: purified protein; settings: 2.5 mM Bicine pH 8.3, 0.2 M NaCl, zinc enzyme
[2] = substrate: O=C1O[C@@H](COP(=O)(O)O)[C@H](O)[C@H]1O; test: purified protein; settings: 2.5 mM Bicine pH 8.3, 0.2 M NaCl, zinc enzyme

Row | Protein | Km [1] [µM] | kcat [1] [s⁻¹] | kcat/Km [1] [M⁻¹ s⁻¹] | Km [2] [µM] | kcat [2] [s⁻¹] | kcat/Km [2] [M⁻¹ s⁻¹]
1 | Ms0025 (MS53_0025) (Mycoplasmopsis synoviae 53) (protein) MENKFARTVLGDIPVEKLGITDCHDHFIKNGGPEVEEHIDFLMLNVDASIKEFKEFIDRGGSTIVTMDPPNVGRDVLKTLEIANAVKNLGGNVIMSTGFHKAKFYDKYSSWLAVVPTEEIVKMCVAEIEEGMDEYNYNGPVVKRSKAKAGIIKAGTGYGAIDRLELKALEVAARTSILTGCPILVHTQLGTMALEVAKHLIGFGANPDKIQISHLNKNPDKYYYEKVIKETGVTLCFDGPDRVKYYPDSLLAENIKYLVDKGLQKHITLSLDAGRILYQRNYGLTKGKQTFGLAYLFDRFLPLLKQVGVSKEAIFDILVNNPKRVLAFDEKRNFDPLKVSKEVLELKKELNLN | 500 ± 40 | 23.4 ± 0.8 | 47000 ± 4000 | 300 ± 20 |  | 
2 | Mag6390 (MAG_6390) (Mycoplasmopsis agalactiae PG2) (protein) MAKDKFVRTVLGDVPAESIGITDCHDHLIKNGGPEMHEHPDFLMIDVEAAKKEVQEYVDHGGKTIVTMDPPNVGRDVYRMLEIAEAFKGKANIVMSTGFHKAAFYDKYSSWLACVPTDDIVKMMVAEVEEGMDEYNYNGPVVKRSKAKAGIIKAGTGYAAIDRLELKALEVAARTSITTGCPILVHTQLGTMALEVAQHLIGFGANPRKIQLSHLNKNPDRYYYEKIIKETGVTICFDGPDRVKYYPDSLLADHIKYLVDKGLQKHITLSLDAGRILYQRNYGLTKGKETFGLSYLFERFIPLLKQVGVSQEAIDDILINNPREILAFDEPRVYDASKVSSEVVQLKKDLKLL | 900 ± 100 |  |  | 660 ± 60 | 8.7 ± 0.3 | 13000 ± 1000

— PMC4108184
